Laboratory results: publication PMC5054401

Legend:
[1] = HeLa subcellular fractionation, anti-Flag western
[2] = anti-Flag immunofluorescence, nucleus/cytoplasm densitometry; settings: glycan lost
[3] = OGT enzyme activity (Supplementary Fig. 5a,b); settings: glycan lost; control: WT-OGT

B1: O-GlcNAc transferase (OGT): Mono-OGT S389A (protein)
parent chain: MASSVGNVADSTGLAELAHREYQAGDFEAAERHCMQLWRQEPDNTGVLLLLSSIHFQCRRLDRSAHFSTLAIKQNPLLAEAYSNLGNVYKERGQLQEAIEHYRHALRLKPDFIDGYINLAAALVAAGDMEGAVQAYVSALQYNPDLYCVRSDLGNLLKALGRLEEAKACYLKAIETQPNFAVAWSNLGCVFNAQGEIWLAIHHFEKAVTLDPNFLDAYINLGNVLKEARIFDRAVAAYLRALSLSPNHAVVHGNLACVYYEQGLIDLAIDTYRRAIELQPHFPDAYCNLANALKEKGSVAEAEDCYNTALRLCPTHADSLNNLANIKREQGNIEEAVRLYRKALEVFPEFAAAHSNLASVLQQQGKLQEALMHYKEAIRISPTFADAYSNMGNTLKEMQDVQGALQCYTRAIQINPAFADAHSNLASIHKDSGNIPEAIASYRTALKLKPDFPDAYCNLAHCLQIVCDWTDYDERMKKLVSIVADQLEKNRLPSVHPHHSMLYPLSHGFRKAIAERHGNLCLDKINVLHKPPYEHPKDLKLSDGRLRVGYVSSDFGNHPTSHLMQSIPGMHNPDKFEVFCYALSPDDGTNFRVKVMAEANHFIDLSQIPCNGKAADRIHQDGIHILVNMNGYTKGARNELFALRPAPIQAMWLGYPGTSGALFMDYIITDQETSPAEVAEQYSEKLAYMPHTFFIGDHANMFPHLKKKAVIDFKSNGHIYDNRIVLNGIDLKAFLDSLPDVKIVKMKCPDGGDNADSSNTALNMPVIPMNTIAEAVIEMINRGQIQITINGFSISNGLATTQINNKAATGEEVPRTIIVTTRSQYGLPEDAIVYCNFNQLYKIDPSTLQMWANILKRVPNSVLWLLRFPAVGEPNIQQYAQNMGLPQNRIIFSPVAPKEEHVRRGQLADVCLDTPLCNGHTTGMDVLWAGTPMVTMPGETLASRVAASQLTCLGCLELIAKNRQEYEDIAVKLGTDLEYLKKVRGKVWKQRISSPLFNTKQYTMELERLYLQMWEHYAAGNKPDHMIKPVEVTESA
In the case of B1, the localisation_or_trafficking ([1]; glycan lost, control: Mono-OGT) is reported as “decreases” and the localisation_or_trafficking ([2]; control: Mono-OGT) is reported as “decreases”.

B2: O-GlcNAc transferase (OGT): 5-thio-GlcNAc (protein)
parent chain: B1 parent chain
For B2, the localisation_or_trafficking ([1]; glycan lost, control: untreated cells) was “decreases” and the localisation_or_trafficking ([2]; control: untreated cells) was “decreases”.

B3: O-GlcNAc transferase (OGT): Thiamet-G (protein)
parent chain: B1 parent chain
In the case of B3, the localisation_or_trafficking ([1]; glycan gained, control: untreated cells) is reported as “increases”.

B4: O-GlcNAc transferase (OGT): OGT S389A (protein)
parent chain: B1 parent chain
For B4, the enzymatic_activity [3] was “no change”.
